Data published in the supplement of paper PMC10567573.

B1: EMD (parent)
chain: YQSKGYNDDYYEESYFTTRTYGEP
B2: S100A14 (parent)
chain: KIANLGSCNDSKLEFRSFWELIGE

Variants of: B1
Assay: protein stability index of a GFP-peptide fusion (GPS, HEK-293T) (PSI 1-6); higher = more stable
Conditions: c terminus: a fixed tail appended
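Note: lentivirally expressed fusions sorted by FACS into six bins by GFP to DsRed ratio, PSI derived from sequencing read proportions per bin multiplied by bin number.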

Protein stability index, by site and new letter:
S3: W 1.72; Q 2.43; E 3.25; L 2.17; P 2.72; G 2.18; C 1.95; Y 2.47; H 2.42
K4: Q 2.39; V 2.54; A 2.36; H 1.97; I 1.98; F 1.69; T 2.38; Y 2.06; D 3.33; N 2.36; E 3.46; S 2.3; P 2.5
T18: Q 2.3; A 2.31; K 2.65; R 2.79; G 2.09; M 2.04; C 2.08; E 2.44; W 2.02; I 1.77; P 1.88; H 2.17; S 2.38
Y15: S 2.96; A 2.92; E 3.41; V 2.62; T 2.8; L 2; C 2.37; Q 2.91; G 2.96; M 2.42; W 2.24; P 2.35; I 2.11; K 2.63
D9: C 1.18; F 2.44; S 1.57; K 1.52; I 1.57; Y 1.79; H 1.89; G 2.7; N 1.74; L 2.01; A 1.44; E 2.06; T 1.79; R 1.96; V 1.85
E23: D 2.28; F 1.51; C 2.12; K 2.09; T 2.24; P 2.44; I 1.92; R 1.91; Q 1.94; M 1.55; A 1.7; S 2.12; Y 1.99; G 2; W 2.35
S14: H 2.13; Y 2.28; M 2.26; T 2.38; W 2.29; F 1.78; R 1.9; A 1.88; V 2.19; N 2.35; Q 2.34; L 2.08; D 2.44; C 1.77; I 1.76
D8: F 2.13; R 1.8; L 2.37; T 2.09; A 1.5; H 1.96; S 1.92; Q 1.67; P 2.36; I 2.05; W 2.85
N7: V 2.13; A 2.25; P 2.17; D 2.62; G 2.13; M 1.67; C 2.05; T 2.14; E 2.87; S 2.47; Q 2.14; F 3.55; I 1.76
Y21: S 2.77; E 3.18; P 2.76; Q 2.53; G 2.98; D 3.06; V 2.93; H 2.86; N 2.68; I 2.39; T 2.27; C 2.81; W 1.96
Y6: D 3.68; Q 2.93; H 2.82; M 2.85; G 3.01; C 2.65; T 3.34; W 1.48; V 3.31; I 2.83; N 3.16; E 3.76; F 2.4; S 3.77; P 3.3; A 3.26
Y1: P 3.63; E 4.2; Q 4.15; C 3.02; L 2.92; G 3.8; M 3.22; F 1.97; T 3.7; I 3.2; A 3.8; D 4.46; S 3.67
Y11: A 2.97; S 2.8; K 2.19; D 3.29; F 1.68; H 2.6; N 2.98; E 3.16; C 2.36; T 2.94; M 2.51
R19: M 2.35; W 2.03; Q 2.88; F 2.11; C 2.08; H 2.5; Y 2.52; E 3.12; K 2.46; A 2.29; D 3.08
F16: E 3.64; S 2.88; H 3.08; N 3.59; Q 3.1; T 3.14; R 2.69; I 2.95; A 3.2; C 3.12; Y 2.28; G 3.26; W 1.45; K 3.15
T17: A 2.36; G 2.82; S 2.48; K 2.56; E 3.02; C 1.96; W 2.15; Q 2.31; I 2.1; D 3.19; H 2.07; M 1.71; R 2.44
Y10: I 2.52; A 2.2; L 2.18; P 2.53; C 2.47; W 2.38; R 2.82; S 2.65; D 2.85; N 2.64; H 2.45; Q 2.67; K 2.44; F 2.11
Q2: F 1.93; V 1.9; Y 2.01; G 2.53; S 2.65; A 2.15; T 1.99; I 1.93; W 1.59; D 3.5; E 3.62; L 2.5; P 2.29; H 2.03
T20: E 2.52; S 2.33; I 1.73; C 2.26; G 2.6; Q 1.86; P 2.17; D 2.52; R 2.1; F 2.23; K 2.05
G5: I 2.18; M 1.74; T 2.52; L 1.82; D 3.08; A 1.93; N 2.33; F 2.33; P 2.1; V 2.06; K 2.22; H 1.89; Y 1.89; C 1.95; W 2.92
E12: F 2.11; V 1.71; N 1.95; K 2.33; P 2.12; Q 1.86; M 2.26; D 2.57; C 1.75; R 1.73; S 2.33; T 2.2; H 1.52; G 1.84
P24: Q 2.52; N 2.15; L 2.1; E 2.12; Y 1.83; G 2.51; K 2.58; H 1.97; M 2.28; T 1.91; I 1.86; W 1.74; D 2.89; V 1.85; C 2.48; S 2.29; A 2.28; F 1.57
G22: K 2.85; R 2.28; A 2.1; P 2.27; T 2.49; I 2.13; N 2.46; D 2.23; S 2.07; Y 1.49; L 2.01; H 2.13; E 2.76; F 1.77
E13: W 1.83; D 2.42; M 2.68; P 1.74; L 1.93; N 1.64; G 2; Q 1.87; R 1.82; A 1.95; T 2.29; V 1.71; S 2.16; Y 1.91; H 1.47; C 1.53; F 3.37

Variants of: B2
Assay: as above
Conditions: c terminus: a fixed tail appended

Protein stability index, by site and new letter:
K1: G 2.04; I 1.79; F 2.99; H 1.61; E 1.84; D 1.86; C 1.92; A 1.98
